Results on two molecules are retold here after PMC2878485 (Structure (London, England : 1993), 2008).

Numbering of substitutions follows the chain as printed.

For one series, the target named is UL44ΔC290 wild-type (Human cytomegalovirus, UniProt P16790 1-290). Nature of the series: disulfide crosslinking, nonreducing PAGE.
Series [1] deals with T1, UL44ΔC290 R165A/K167A/R168A/K171A/K172A (human cytomegalovirus, UniProt P16790 1-290, R165A | K167A | R168A | K171A | K172A).
T1 sequence (looked up): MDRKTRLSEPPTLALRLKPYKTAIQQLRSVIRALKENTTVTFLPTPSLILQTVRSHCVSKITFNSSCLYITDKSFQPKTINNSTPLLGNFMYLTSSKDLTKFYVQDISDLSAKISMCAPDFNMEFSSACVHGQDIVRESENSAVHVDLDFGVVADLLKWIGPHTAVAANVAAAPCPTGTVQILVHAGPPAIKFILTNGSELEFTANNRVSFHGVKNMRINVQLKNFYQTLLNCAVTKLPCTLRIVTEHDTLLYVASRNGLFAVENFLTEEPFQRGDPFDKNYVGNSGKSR
Nature of the series: ITC. Background: In ITC the heat of successive injections is recorded.

Series [2] has as its target T2, UL44ΔC290 K35A/K158A/K224A/K237A (human cytomegalovirus, UniProt P16790 1-290, K35A | K158A | K224A | K237A).
T2 sequence (looked up): T1 sequence (looked up) with K35A, K158A, A165R, A167K, A168R, A171K, A172K, K224A, K237A
Nature of the series: ITC.

Series [3] concerns the target T3, UL44ΔC290 (wild-type; N-terminal 290 residues of human cytomegalovirus UL44) (human cytomegalovirus, UniProt P16790 1-290).
T3 sequence (looked up): T1 sequence (looked up) with A165R, A167K, A168R, A171K, A172K
Put plainly: ITC.

B1: 18 bp thiol-tethered DNA (dsDNA)
DNA 1: TACCGCAGCCATCAGAGT
DNA 2: ACTCTGATGGCTGCGGTA
modifications: single thiol tether on backbone phosphate between bases 11 and 12 of strand 1
As for B1, in the series with UL44ΔC290 wild-type, the binding result is listed as “binds”.
For the molecule LPRRLHLEPAFLPYSVKAHECC (peptide, UniProt P08546 1221-1242, looked up) [peptide corresponding to the C-terminal 22 residues of UL54], the binding result in series [1], in series [2] and in series [3] was “binds” each time.
